Earlier results, collected in article PMC7785802, “Therapeutic Efficacy of a Trichinella Spiralis Paramyosin-Derived Peptide Modified With a Membrane-Targeting Signal in Mice With Antigen-Induced Arthritis” (Frontiers in Microbiology, 2020).
Where two headings read alike, the source gives them in different places.

System: antigen-induced arthritis (AIA)
Conditions: intraarticular injection prior to disease onset or at disease flares, animal models, Williams et al., 2004, Durigutto et al., 2013
Description: As MAC is a therapeutic target in RA, complement inhibitors have shown potential for preventing and treating arthritis in animal models (Goodfellow et al., [2000]; Durigutto et al., [2013]). Moreover, local or targeted inhibition might be an effective way to circumvent the adverse effects of systemic complement inhibition. […] More precisely, intraarticular injection of membrane-targeted CD59 or Fc fusio ... || RA is an autoimmune disease that has been confirmed to involve inappropriate complement activation in the joint cavity, making the delivery of anti-complement drugs into the joint cavity an ideal therapeutic strategy to relieve RA progression (Dijkstra et al., [2019]). […] Murine AIA, a well-recognized acute complement-dependent arthritis, imitates the pathology of RA (van den Berg et al., [2007]). As complement activation is involved in the process of AIA, this model has been utilized in many studies to assess the therapeutic efficacy of complement inhibitors that might affect various stages of complement activation. In animal models, intraarticular injection of complement inhibitors (including sCR1, CD59, and anti-C5 neutralizing recombinant mini-antibody) prior to ...

B1: CD59: a heavily glycosylated protein of 20 kDa that can specifically inhibit MAC formation (protein, UniProt P13987 26-102, looked up)
CD59 glycoprotein: LQCYNCPNPTADCKTAVNCSSDFDACLITKAGLQVYNKCWKFEHCNFNDVTTRLRENELTYYCCKKDLCNFNEQLEN
effect on joint swelling and development of AIA (ref Goodfellow et al., 2000): alleviate joint swelling and the development of AIA | effect on joint swelling and development of AIA (ref Harris et al., 2002): alleviate joint swelling and the development of AIA
